Experimental findings from article PMC11417369, “DNA sequence and chromatin differentiate sequence-specific transcription factor binding in the human malaria parasite Plasmodium falciparum” are described below.

T1: HDP1 homeodomain-like (Plasmodium falciparum, UniProt Q8IKH4 2990-3078)
T1 sequence: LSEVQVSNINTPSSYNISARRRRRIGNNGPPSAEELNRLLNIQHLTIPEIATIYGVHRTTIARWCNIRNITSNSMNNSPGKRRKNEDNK

B1: GTGCAC_negctrl_site639 (dsDNA)
DNA 1: AAATAATTTATAAATAAATACATTGTTACTTTTTCT
DNA 2: AGAAAAAGTAACAATGTATTTATTTATAAATTATTT
B2: GTGCAC_negctrl_site466 (dsDNA)
DNA 1: AAAAAAATTAAAAATTAAAATTAAAAATAATATATA
DNA 2: TATATATTATTTTTAATTTTAATTTTTAATTTTTTT
B3: GTGCAC_negctrl_site630 (dsDNA)
DNA 1: TTCTTTTCTTTTTTCTTTTTTTTTTTCTTTTCTTTT
DNA 2: AAAAGAAAAGAAAAAAAAAAAGAAAAAAGAAAAGAA
B4: GTGCAC_negctrl_site74 (dsDNA)
DNA 1: AATTGGAAGAAAAAAAAGGAAGGAAAGTTATTACAT
DNA 2: ATGTAATAACTTTCCTTCCTTTTTTTTCTTCCAATT
B5: GTGCAC_negctrl_site564 (dsDNA)
DNA 1: ATAATGAACAATATTATATATAAAATATAATTTATA
DNA 2: TATAAATTATATTTTATATATAATATTGTTCATTAT
B6: GTGCAC_negctrl_site607 (dsDNA)
DNA 1: TTTTCATTTATGTATATATTTATTTTGATTTAATGT
DNA 2: ACATTAAATCAAAATAAATATATACATAAATGAAAA
B7: GTGCAC_negctrl_site236 (dsDNA)
DNA 1: TGTTAAAAGGTTAAATTAAAATAACCTCCGGAAATT
DNA 2: AATTTCCGGAGGTTATTTTAATTTAACCTTTTAACA
B8: GTGCAC_negctrl_site347 (dsDNA)
DNA 1: TTTTTTTTTATATAAAAAAAAATTTTTATTATTTTA
DNA 2: TAAAATAATAAAAATTTTTTTTTATATAAAAAAAAA
B9: GTGCAC_negctrl_site183 (dsDNA)
DNA 1: TGTATAGGTACAATAATTATAGAGTAATTGACATTA
DNA 2: TAATGTCAATTACTCTATAATTATTGTACCTATACA
B10: GTGCAC_negctrl_site480 (dsDNA)
DNA 1: TTATAATAAAAGGCTTTACAATTATTAAACAAATAA
DNA 2: TTATTTGTTTAATAATTGTAAAGCCTTTTATTATAA
B11: GTGCAC_negctrl_site190 (dsDNA)
DNA 1: TAGTTACTTCTTATATAAAATATGTATATAAAAATA
DNA 2: TATTTTTATATACATATTTTATATAAGAAGTAACTA
B12: GTGCAC_negctrl_site542 (dsDNA)
DNA 1: AAAATCCAGTTTTCAAAATTGAACAAAAAAAAAATA
DNA 2: TATTTTTTTTTTGTTCAATTTTGAAAACTGGATTTT
B13: GTGCAC_negctrl_site722 (dsDNA)
DNA 1: ATAATACAAAAAAAAAAAAAAAATAAAATAATAAAA
DNA 2: TTTTATTATTTTATTTTTTTTTTTTTTTTGTATTAT
B14: GTGCAC_negctrl_site145 (dsDNA)
DNA 1: TTTGTAAAATAATATCTTTCATGTCCTTACTAATTA
DNA 2: TAATTAGTAAGGACATGAAAGATATTATTTTACAAA
B15: GTGCAC_negctrl_site2 (dsDNA)
DNA 1: ATATGAACAAAATAAATCTCTTCAAAAATAATGTTC
DNA 2: GAACATTATTTTTGAAGAGATTTATTTTGTTCATAT
B16: GTGCAC_negctrl_site52 (dsDNA)
DNA 1: TTTTTACTATAATTAAAATTAACAAAAGAAAATGAT
DNA 2: ATCATTTTCTTTTGTTAATTTTAATTATAGTAAAAA
B17: GTGCAC_negctrl_site240 (dsDNA)
DNA 1: TTTTTTTTTTTTTTTTTTTGATTCTTATAAAAATTT
DNA 2: AAATTTTTATAAGAATCAAAAAAAAAAAAAAAAAAA
B18: GTGCAC_negctrl_site162 (dsDNA)
DNA 1: TTTCTTATAGATTTTAATCCTCTATCAAAAAAAGAA
DNA 2: TTCTTTTTTTGATAGAGGATTAAAATCTATAAGAAA
B19: GTGCAC_negctrl_site143 (dsDNA)
DNA 1: TTTTTTTTTTTTTTTTTTTTTTTTTTGTTCAGGCCT
DNA 2: AGGCCTGAACAAAAAAAAAAAAAAAAAAAAAAAAAA
B20: GTGCAC_negctrl_site144 (dsDNA)
DNA 1: TTTTTTCTTTTTTTTTTTAATTATAAACATGATATT
DNA 2: AATATCATGTTTATAATTAAAAAAAAAAAGAAAAAA
B21: GTGCAC_negctrl_site289 (dsDNA)
DNA 1: TTTTTAGAAAAGGTTATAAAAAATTAATTGAAAAAA
DNA 2: TTTTTTCAATTAATTTTTTATAACCTTTTCTAAAAA
B22: GTGCAC_negctrl_site318 (dsDNA)
DNA 1: ATTTAAAAAAAAAAAAATAAATAACTTGAAAAACAA
DNA 2: TTGTTTTTCAAGTTATTTATTTTTTTTTTTTTAAAT
B23: GTGCAC_negctrl_site124 (dsDNA)
DNA 1: TTTTAAAATTTTTTTTTTTTTTTTTTATGAACAAGT
DNA 2: ACTTGTTCATAAAAAAAAAAAAAAAAAATTTTAAAA
B24: GTGCAC_negctrl_site697 (dsDNA)
DNA 1: AAAACTTTTAAAATTTTGTATTCATTCCTTCAACAA
DNA 2: TTGTTGAAGGAATGAATACAAAATTTTAAAAGTTTT
B25: GTGCAC_negctrl_site221 (dsDNA)
DNA 1: ATATGTATAAGTATGTATATTTATTTATACTTATGT
DNA 2: ACATAAGTATAAATAAATATACATACTTATACATAT
B26: GTGCAC_negctrl_site152 (dsDNA)
DNA 1: ATTATTTAATTTTATTAAAAAAAAACAAATTAACAG
DNA 2: CTGTTAATTTGTTTTTTTTTAATAAAATTAAATAAT
B27: GTGCAC_negctrl_site487 (dsDNA)
DNA 1: ATCATGGAAAAAACAAATGGGCTACATTACCTTTTG
DNA 2: CAAAAGGTAATGTAGCCCATTTGTTTTTTCCATGAT
B28: GTGCAC_negctrl_site474 (dsDNA)
DNA 1: ATAAAATATTAATTTTAAATTAATCAATATATATAA
DNA 2: TTATATATATTGATTAATTTAAAATTAATATTTTAT
B29: GTGCAC_negctrl_site147 (dsDNA)
DNA 1: AGTAAAAAAAAAAAAAAAAAAAAAAAAAAAAAAAAA
DNA 2: TTTTTTTTTTTTTTTTTTTTTTTTTTTTTTTTTACT
B30: GTGCAC_negctrl_site303 (dsDNA)
DNA 1: TCTTTTTTTTTTTTTTTTTCTTCTTCTCAATATAAA
DNA 2: TTTATATTGAGAAGAAGAAAAAAAAAAAAAAAAAGA
B31: GTGCAC_negctrl_site338 (dsDNA)
DNA 1: TTTTTTTTTTTTTTTTTTTTTTTGTCTTATTTTTTT
DNA 2: AAAAAAATAAGACAAAAAAAAAAAAAAAAAAAAAAA
B32: GTGCAC_negctrl_site77 (dsDNA)
DNA 1: TATTAAAATATGTCAGTTCTTAAAAAGTTGATGAGT
DNA 2: ACTCATCAACTTTTTAAGAACTGACATATTTTAATA
B33: GTGCAC_negctrl_site29 (dsDNA)
DNA 1: TAAGTCAAAACTTTTTTTTCTAAATTTCCATAATTA
DNA 2: TAATTATGGAAATTTAGAAAAAAAAGTTTTGACTTA
B34: GTGCAC_negctrl_site302 (dsDNA)
DNA 1: TAAAAAAATAAAAAAAAAAAATTATAAAATTATATA
DNA 2: TATATAATTTTATAATTTTTTTTTTTTATTTTTTTA
B35: GTGCAC_negctrl_site550 (dsDNA)
DNA 1: AAAAAAAATAAAGAGAAAAAAAAAAGAAAATTATAT
DNA 2: ATATAATTTTCTTTTTTTTTTCTCTTTATTTTTTTT
B36: GTGCAC_negctrl_site87 (dsDNA)
DNA 1: ATATATATAAAATATTATATTAAAAAAAATAAAATA
DNA 2: TATTTTATTTTTTTTAATATAATATTTTATATATAT
B37: GTGCAC_negctrl_site459 (dsDNA)
DNA 1: TTTTTTAGATTACATAAATATAAATATAAATATATA
DNA 2: TATATATTTATATTTATATTTATGTAATCTAAAAAA
B38: GTGCAC_negctrl_site73 (dsDNA)
DNA 1: AGCACACAAAAAAAAAAAAAAAAAAAAAAAGGAATG
DNA 2: CATTCCTTTTTTTTTTTTTTTTTTTTTTTGTGTGCT
B39: GTGCAC_negctrl_site380 (dsDNA)
DNA 1: ATGGAAGGATAATAAAAACCTTTACCTTTCTGTTTA
DNA 2: TAAACAGAAAGGTAAAGGTTTTTATTATCCTTCCAT
B40: GTGCAC_negctrl_site405 (dsDNA)
DNA 1: TTTTTTATATTGATATTTATTAAATATGAAATGTTA
DNA 2: TAACATTTCATATTTAATAAATATCAATATAAAAAA
B41: GTGCAC_negctrl_site725 (dsDNA)
DNA 1: TTTTTAATCAGAAATATTTATTAAAGAATTTTATAG
DNA 2: CTATAAAATTCTTTAATAAATATTTCTGATTAAAAA

In the series the target is T1, HDP1 homeodomain-like. Description: gcPBM; about 25 ug protein; PBS, 1% milk, 0.2 mg/ml BSA, salmon testes DNA, 0.03% Triton X-100. The note with it: tags: N-terminal GST (pGEX-4T-1), kept; chain copies: 2; label: surface-attached array probe.
For B1, the binding signal is 6.13 ln median PBM intensity, better of two orientations.

As for B2, the binding signal was 5.91 ln median PBM intensity, better of two orientations.

As for B3, the binding signal is 6.08 ln median PBM intensity, better of two orientations. As to B4, the binding signal is 6.06 ln median PBM intensity, better of two orientations.

Turning to B5, the binding signal was 6.17 ln median PBM intensity, better of two orientations.

Regarding B6, the binding signal is 6.11 ln median PBM intensity, better of two orientations. As to B7, the binding signal was 6.21 ln median PBM intensity, better of two orientations. Turning to B8, the binding signal was 6.12 ln median PBM intensity, better of two orientations. B9: the binding signal is 6.21 ln median PBM intensity, better of two orientations. Under B10 stands 6.03 ln median PBM intensity, better of two orientations. Consider B11, for which the binding signal is 6.17 ln median PBM intensity, better of two orientations. On to B12, for which the binding signal is 6.19 ln median PBM intensity, better of two orientations.

Take B13: the binding signal was 6.04 ln median PBM intensity, better of two orientations.

Turning to B14, the binding signal was 5.95 ln median PBM intensity, better of two orientations. For B15, the binding signal was 5.98 ln median PBM intensity, better of two orientations. Consider B16, for which the binding signal was 6.13 ln median PBM intensity, better of two orientations.

In the case of B17, the binding signal is 6.02 ln median PBM intensity, better of two orientations.

As for B18, the binding signal was 6.12 ln median PBM intensity, better of two orientations. Regarding B19, the binding signal is 5.99 ln median PBM intensity, better of two orientations. B20: the binding signal was 6.07 ln median PBM intensity, better of two orientations. Regarding B21, the binding signal is 6.15 ln median PBM intensity, better of two orientations. Under B22 stands 6.08 ln median PBM intensity, better of two orientations; under B23, 5.92 ln median PBM intensity, better of two orientations; under B24, 6.07 ln median PBM intensity, better of two orientations. Regarding B25, the binding signal is 6.16 ln median PBM intensity, better of two orientations. Then B26, with 6.14 ln median PBM intensity, better of two orientations; and B27, with 5.94 ln median PBM intensity, better of two orientations. For the molecule B28, the binding signal is 6.16 ln median PBM intensity, better of two orientations. Then B29, with 6.13 ln median PBM intensity, better of two orientations; and B30, with 6.15 ln median PBM intensity, better of two orientations; and B31, with 5.91 ln median PBM intensity, better of two orientations. Regarding B32, the binding signal was 6.19 ln median PBM intensity, better of two orientations. Consider B33, for which the binding signal is 5.89 ln median PBM intensity, better of two orientations.

On to B34, for which the binding signal was 5.98 ln median PBM intensity, better of two orientations. On to B35, for which the binding signal was 6.22 ln median PBM intensity, better of two orientations.

As for B36, the binding signal is 6.1 ln median PBM intensity, better of two orientations. Take B37: the binding signal is 6.12 ln median PBM intensity, better of two orientations. Take B38: the binding signal is 6.21 ln median PBM intensity, better of two orientations. B39: the binding signal is 5.82 ln median PBM intensity, better of two orientations. Then B40, with 6.13 ln median PBM intensity, better of two orientations.

For B41, the binding signal is 5.95 ln median PBM intensity, better of two orientations.
